Columns and labels:
[1] = molecular target: human FcRn (human) (UniProt P55899); assay: BIAcore equilibrium analysis, FcRn immobilised on CM5 chip, pH 6.0
[2] = molecular target: human FcRn (human) (UniProt P55899); assay: BIAcore, FcRn immobilised, pH 6.0
[3] = molecular target: rat FcRn (rat) (UniProt P13599); assay: BIAcore, FcRn immobilised
[4] = molecular target: T1, human CD20 on WIL2-S cells (human, UniProt P11836 1-297); assay: competitive Scatchard analysis, WIL2-S cells; labelled 125I-2H7.v511; ± standard error of fit
T1 construct: whole, on cells; also called CD20 antigen; hCD20
T1 sequence (looked up): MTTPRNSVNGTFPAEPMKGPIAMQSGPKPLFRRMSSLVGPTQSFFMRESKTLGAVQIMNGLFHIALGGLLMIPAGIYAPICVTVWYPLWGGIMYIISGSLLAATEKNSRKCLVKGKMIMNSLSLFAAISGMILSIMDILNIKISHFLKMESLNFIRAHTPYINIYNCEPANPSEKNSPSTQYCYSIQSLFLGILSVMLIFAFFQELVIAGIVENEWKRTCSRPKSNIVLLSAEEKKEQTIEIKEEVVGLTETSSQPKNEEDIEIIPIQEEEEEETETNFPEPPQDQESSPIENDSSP
Description: (§1) All dilutions were performed in binding assay buffer (DMEM media containing 0.5% bovine serum albumin, 25 mM HEPES pH 7.2, and 0.01% sodium azide). […] Serial dilutions (0.05 mL) of unlabelled antibody were added and mixed. 30,000 WIL2-S cells in a volume of 0.05 mL was added to each well. The plates were sealed and incubated at room temperature for 24 h, then centrifuged for 15 min at 2,500 RPM. The supernatant was then aspirated and the cell pellets were washed and centrifuged. The supernatant was again aspirated, and the pellets were dissolved in 1N NaOH and transferred to tubes for gamma counting.

[5] = molecular target: T1, human CD20 on WIL2-S cells; assay: competitive Scatchard analysis, WIL2-S cells; labelled competitor 125I-2H7.v138; ± standard error of fit
Description: as §1

[6] = molecular target: T2, soluble CD20 (Genentech) (UniProt P11836 1-297, limits assumed); assay: ELISA on plate-coated soluble CD20, bound IgG detected with HRP anti-human Fab, OD450
T2 construct: Coated on ELISA plates; also called solubilized CD20
T2 sequence (looked up): T1 sequence (looked up)
Description: As an additional comparison of the binding activity of 2H7 variants, an ELISA was performed with solubilized CD20.
Serial dilutions of samples in 0.5% BSA were incubated on the plates for 2 h. After washing, bound antibodies were detected with HRP-conjugated anti-human Fab antibody (Goat anti-human Ig, Fab′2-HRP conjugate, from NB) using 3,3′,5,5′-tetramethyl benzidine (Kirkegaard and Perry Laboratories, Gaithersburg, Md.) as substrate. Absorbance was read at 450 nm. Titration curves were fit with a four-parameter nonlinear regression curve-fitting program (KaleidaGraph; Synergy Software, Reading, Pa.). Concentrations of antibody variants corresponding to the midpoint absorbance of the titration curve of the standard were calculated.

[7] = molecular target: T1, human CD20 on WIL2-S cells; assay: cell-based ELISA, WIL2-S cells; conc. 2H7.v16 / conc. variant
Description: To measure relative binding affinities to the CD20 antigen, a cell-based ELISA assay was developed. […] The cells were washed with PBS containing 1% FBS (assay buffer) and seeded at 250-300,000 cell/well in 96-well round bottom plates (Nunc, Roskilde, Denmark). […] The plates were buried in ice and incubated for 45 min. To remove the unbound antibody, 0.1 mL assay buffer were added to the wells. Plates were centrifuged and supernatants were removed. Cells were washed two more times with 0.2 mL assay buffer. Antibody bound to the plates was detected by adding peroxidase conjugated goat anti-human Fc antibody (Jackson ImmunoResearch, West Grove, Pa.) to the plates. After a 45 min incubation, cells were washed as described before. TMB substrate (3,3′,5,5′-tetramethyl benzidine; Kirkegaard & Perry Laboratories, Gaithersburg, Md.) was added to the plates. The reaction was stopped by adding 1 M phosphoric acid. Titration curves were fit with a four-parameter nonlinear regression curve-fitting program (KaleidaGraph, Synergy software, Reading, Pa.). The absorbance at the midpoint of the titration curve (mid-OD) and its corresponding concentration of the standard were determined. Then the concentration of each variant at this mid-OD was determined, and the concentration of the standard was divided by that of each variant.

Sequence of human FcRn (human) (P55899 24-297 limits assumed, chain 1 of 2): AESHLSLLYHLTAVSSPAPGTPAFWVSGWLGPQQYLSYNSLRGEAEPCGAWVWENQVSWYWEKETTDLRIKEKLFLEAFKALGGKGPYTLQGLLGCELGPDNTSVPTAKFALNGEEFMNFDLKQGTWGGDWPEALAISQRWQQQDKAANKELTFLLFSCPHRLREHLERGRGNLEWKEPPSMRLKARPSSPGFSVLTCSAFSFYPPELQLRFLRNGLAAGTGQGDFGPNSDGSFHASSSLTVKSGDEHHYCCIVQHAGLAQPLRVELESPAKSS
Sequence of human FcRn (human) (chain, as listed by the source limits assumed, chain 2 of 2): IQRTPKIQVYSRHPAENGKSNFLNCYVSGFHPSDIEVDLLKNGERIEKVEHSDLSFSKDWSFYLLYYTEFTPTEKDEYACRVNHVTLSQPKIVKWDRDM
Sequence of rat FcRn (rat) (P13599 23-298 limits assumed): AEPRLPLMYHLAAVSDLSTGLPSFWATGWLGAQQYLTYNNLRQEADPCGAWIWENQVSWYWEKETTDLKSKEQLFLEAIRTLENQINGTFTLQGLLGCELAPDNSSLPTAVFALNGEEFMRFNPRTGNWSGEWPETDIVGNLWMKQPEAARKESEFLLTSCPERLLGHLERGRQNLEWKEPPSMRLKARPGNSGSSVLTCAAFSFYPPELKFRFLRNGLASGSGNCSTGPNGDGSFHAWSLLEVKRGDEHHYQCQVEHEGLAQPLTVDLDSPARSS

With parental hingeless Fc (wild-type) the Kd [1] was 700 nM.

soluble Fc variant N434A was tested, and the fold increase in affinity over wild-type Fc [2] was 2.7 fold.

For soluble Fc variant N434A+E380A+T307A, the fold increase in affinity over wild-type Fc [2] was 14 fold.

soluble Fc variant N434F was tested, and the fold increase in affinity over wild-type Fc [2] was 9 fold.

Molecule soluble Fc variant N434W has a fold increase in affinity over wild-type Fc [2] of 170 fold, a Kd [1] of 4 nM and a fold better binding relative to wild-type Fc [3] of 10 fold.

B1: humanized 2H7.v511 (antibody, human IgG1, kappa)
heavy: EVQLVESGGGLVQPGGSLRLSCAASGYTFTSYNMHWVRQAPGKGLEWVGAIYPGNGATSYNQKFKGRFTISVDKSKNTLYLQMNSLRAEDTAVYYCARVVYYSYRYWYFDVWGQGTLVTVSSASTKGPSVFPLAPSSKSTSGGTAALGCLVKDYFPEPVTVSWNSGALTSGVHTFPAVLQSSGLYSLSSVVTVPSSSLGTQTYICNVNHKPSNTKVDKKVEPKSCDKTHTCPPCPAPELLGGPSVFLFPPKPKDTLMISRTPEVTCVVVDVSHEDPEVKFNWYVDGVEVHNAKTKPREEQYNATYRVVSVLTVLHQDWLNGKEYKCKVSNAALPAPIAATISKAKGQPREPQVYTLPPSREEMTKNQVSLTCLVKGFYPSDIAVEWESNGQPENNYKTTPPVLDSDGSFFLYSKLTVDKSRWQQGNVFSCSVMHEALHNHYTQKSLSLSPGK
light: DIQMTQSPSSLSASVGDRVTITCRASSSVSYLHWYQQKPGKAPKPLIYAPSNLASGVPSRFSGSGSGTDFTLTISSLQPEDFATYYCQQWAFNPPTFGQGTKVEIKRTVAAPSVFIFPPSDEQLKSGTASVVCLLNNFYPREAKVQWKVDNALQSGNSQESVTEQDSKDSTYSLSSTLTLSKADYEKHKVYACEVTHQGLSSPVTKSFNRGEC
notes: Full-length IgG1; VH D56A, N100Y, S100aR; VL M32L, S92A; Fc S298A, K326A, E333A, K334A vs v16; also called hu2H7.v511
In the case of B1, the Kd [4] is reported as 0.45 nM, the Kd [5] is reported as 0.11 nM and the “EC50 (read off the curve)” value [6] is reported as about 0.02 µg/mL.

B2: humanized 2H7.v166 (antibody, human IgG1, kappa, V domains shown)
VH: EVQLVESGGGLVQPGGSLRLSCAASGYTFTSYNMHWVRQAPGKGLEWVGAIYPGNGDTSYNQKFKGRFTISVDKSKNTLYLQMNSLRAEDTAVYYCARVVYYGGDWYFDVWGQGTLVTVSS
VL: DIQMTQSPSSLSASVGDRVTITCRASSSVSYMHWYQQKPGKAPKPLIYAPSNLASGVPSRFSGSGSGTDFTLTISSLQPEDFATYYCQQWSFNPPTFGQGTKVEIKR
notes: IgG1; changes vs v16
For B2, the Relative binding [7] was 0.99 ratio.
